Columns and labels:
[1] = biological target: T1, recombinant human RKIP (rhRKIP) wild type, histidine-tagged (human), P30086; test: non-reducing SDS-PAGE; purified rhRKIP in sample loading buffer without β-mercaptoethanol or boiling; Coomassie Brilliant Blue staining or anti-His immunoblot; details: remark: other sources report otherwise
[2] = biological target: T1, recombinant human RKIP (rhRKIP) wild …; test: LC Q-TOF mass spectrometry; purified rhRKIP WT and mutant proteins in buffer at pH 7.4; peaks around 22 kDa (monomer) and 44 kDa (dimer); details: remark: other sources report otherwise

B1: recombinant human RKIP (rhRKIP) wild type, histidine-tagged, P30086 1-187 (natural protein)
chain: MPVDLSKWSGPLSLQEVDEQPQHPLHVTYAGAAVDELGKVLTPTQVKNRPTSISWDGLDSGKLYTLVLTDPDAPSRKDPKYREWHHFLVVNMKGNDISSGTVLSDYVGSGPPKGTGLHRYVWLVYEQDRPLKCDEPILSNRSGDHRGKFKVASFRKKYELRAPVAGTCYQAEWDDYVPKLYEQLSGK
Question: What does the source list for B1?
Answer: stoichiometry N [1]: 2; stoichiometry N [2]: 2

From paper PMC11767649
